Laboratory results published in publication PMC3485042.

Biological target: IhfAB (integration host factor) (UniProt P0A6X7+P0A6Y1)
Test: DNase I footprinting
Conditions: 25 mM Tris-HCl pH 7.5, 50 mM KCl, 6.25 mM MgCl2, 10% glycerol, 1 mM DTT, 30 min room temperature; then 2.5 mM CaCl2 and 5 mM MgCl2 added for DNase I (1 min)

Chain of UniProt P0A6X7 (P0A6X7 whole entry, chain 1 of 2): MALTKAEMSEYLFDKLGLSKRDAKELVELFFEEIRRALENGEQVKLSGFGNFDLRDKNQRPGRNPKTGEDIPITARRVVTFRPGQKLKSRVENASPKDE
Chain of UniProt P0A6X7 (P0A6Y1 whole entry, chain 2 of 2): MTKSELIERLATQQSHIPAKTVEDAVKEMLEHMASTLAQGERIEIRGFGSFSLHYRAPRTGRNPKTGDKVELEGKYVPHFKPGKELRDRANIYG

“TCTGGTTTGGTTTTGTTTTGCGGGTTAAAAGATCGTTTAAATCAATATTTACAACATAAAAAACTAAATTTAACTTATTGCGTGAAGAGTATTTCCGGGCCGGAAGCATATATCCAGGGGCCCGACAGAAGGGGGAAACAT (double strand) [papB promoter region (141 bp PCR product)]” was tested, and the binding was “binds”.
